Measurements from patent publication US20240209100A1.
Where two headings read alike, the source gives them in different places.

How the values were obtained:
Assay in all cases: cell-based or functional assay
[1] = target: T1, IL-18 receptor (IL-18Rα/IL-18Rβ) on human PBMCs (human) (UniProt Q13478)
T1 sequence 1: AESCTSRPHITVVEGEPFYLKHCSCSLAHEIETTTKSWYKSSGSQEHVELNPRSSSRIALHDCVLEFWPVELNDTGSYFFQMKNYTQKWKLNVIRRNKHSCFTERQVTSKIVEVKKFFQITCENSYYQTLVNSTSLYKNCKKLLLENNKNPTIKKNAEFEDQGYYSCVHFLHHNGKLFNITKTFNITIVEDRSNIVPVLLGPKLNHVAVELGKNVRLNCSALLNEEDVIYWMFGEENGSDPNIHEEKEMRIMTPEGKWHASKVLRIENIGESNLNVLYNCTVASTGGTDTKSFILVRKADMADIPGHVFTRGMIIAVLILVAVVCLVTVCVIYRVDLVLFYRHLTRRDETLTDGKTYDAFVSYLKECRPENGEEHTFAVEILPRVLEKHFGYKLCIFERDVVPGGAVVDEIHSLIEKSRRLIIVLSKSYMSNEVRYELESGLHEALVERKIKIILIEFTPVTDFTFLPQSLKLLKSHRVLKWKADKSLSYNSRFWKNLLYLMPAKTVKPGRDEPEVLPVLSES
T1 sequence 2: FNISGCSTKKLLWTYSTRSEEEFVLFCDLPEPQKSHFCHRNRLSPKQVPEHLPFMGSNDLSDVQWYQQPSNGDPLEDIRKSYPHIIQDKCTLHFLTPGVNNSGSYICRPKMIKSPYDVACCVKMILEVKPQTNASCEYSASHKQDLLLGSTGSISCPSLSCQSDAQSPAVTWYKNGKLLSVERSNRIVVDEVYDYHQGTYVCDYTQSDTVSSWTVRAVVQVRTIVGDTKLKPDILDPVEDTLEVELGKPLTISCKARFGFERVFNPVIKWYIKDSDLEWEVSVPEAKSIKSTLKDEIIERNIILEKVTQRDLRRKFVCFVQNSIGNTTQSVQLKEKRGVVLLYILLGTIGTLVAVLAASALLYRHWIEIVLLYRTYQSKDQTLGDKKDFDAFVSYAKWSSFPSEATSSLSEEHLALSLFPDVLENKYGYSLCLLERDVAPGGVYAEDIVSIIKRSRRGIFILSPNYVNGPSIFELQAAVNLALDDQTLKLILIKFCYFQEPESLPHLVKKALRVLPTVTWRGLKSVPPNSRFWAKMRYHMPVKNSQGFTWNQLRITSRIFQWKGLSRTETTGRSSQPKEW

[2] = target: T2, IL-18 receptor (IL-18Rα/IL-18Rβ) overexpressed on HEK-Blue IL-18 cells (Homo sapiens (Human)) (UniProt Q13478)
T2 sequence 1: T1 sequence 1
T2 sequence 2: T1 sequence 2

[3] = target: T2, IL-18 receptor (IL-18Rα/IL-18Rβ) overexpressed on HEK-Blue IL-18 cells (Homo sapiens (Human)); remark: listed apart in the source
[4] = target: T2, IL-18 receptor (IL-18Rα/IL-18Rβ) overexpressed on HEK-Blue IL-18 cells (Homo sapiens (Human)); remark: listed apart in the source
[5] = target: T2, IL-18 receptor (IL-18Rα/IL-18Rβ) overexpressed on HEK-Blue IL-18 cells (Homo sapiens (Human)); remark: listed apart in the source
[6] = target: T2, IL-18 receptor (IL-18Rα/IL-18Rβ) overexpressed on HEK-Blue IL-18 cells (Homo sapiens (Human)); remark: listed apart in the source

Sequence of Human IL-18 (Q14116 37-193 limits assumed): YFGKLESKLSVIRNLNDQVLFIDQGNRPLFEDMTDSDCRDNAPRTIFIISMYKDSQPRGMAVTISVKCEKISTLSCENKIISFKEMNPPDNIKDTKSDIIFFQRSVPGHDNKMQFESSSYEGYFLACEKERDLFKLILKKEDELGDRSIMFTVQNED

Substance “Human IL-18 (from UniProt Q14116 37-193) (ligand)” has a PBMC IFNγ induction (24 h, with IL-12): EC50, Average [1] of 6.8, a PBMC IFNγ induction (24 h, with IL-12): EC50, donor 1 [1] of 1.9 and a PBMC IFNγ induction (24 h, with IL-12): EC50, donor 2 [1] of 1.7. It also gave a PBMC IFNγ induction (24 h, with IL-12): EC50, donor 3 [1] of 1.4, a PBMC IFNγ induction (24 h, with IL-12): EC50, donor 4 [1] of 4.7 and a PBMC IFNγ induction (24 h, with IL-12): EC50, donor 5 [1] of 1.9. It also gave a PBMC IFNγ induction (24 h, with IL-12): EC50, donor 6 [1] of 29.4, a PBMC: calculated maximum induction of IFNγ after 24 hours, donor 1 [1] of 42000 and a PBMC: calculated maximum induction of IFNγ after 24 hours, donor 2 [1] of 5300. It also gave a PBMC: calculated maximum induction of IFNγ after 24 hours, donor 3 [1] of 89000, a PBMC: calculated maximum induction of IFNγ after 24 hours, donor 4 [1] of 69000 and a PBMC: calculated maximum induction of IFNγ after 24 hours, donor 5 [1] of 150000. For the same substance, the PBMC: calculated maximum induction of IFNγ after 24 hours, donor 6 [1] was 28000, the HEK-Blue IL-18: Abs 405 (Ave of 2) [2] was 2.6 Abs and the HEK-Blue IL-18: Abs405 (Emax), Average (hu IL-18) [2] was 2.72 Abs. The HEK-Blue IL-18: EC50 (M), Average (hu IL-18) [2] was 7.14e-14 M, the HEK-Blue IL-18: Emax (Abs at 630 nm), Human IL-18 (1 ng/ml) (Abs at 630 nm) [2] was 3.25 and the HEK-Blue IL-18: Fold over background [2] was 22 fold. The HEK-Blue IL-18: Abs405 [3] was 3.08 Abs, the HEK-Blue IL-18: Fold over background [3] was 26 fold and the HEK-Blue IL-18: Abs 405 at 100 nM [4] was 3 Abs. For the same substance, the HEK-Blue IL-18: Fold over background [4] was 13.2 fold, the HEK-Blue IL-18: Abs405 [5] was 3.1 Abs and the HEK-Blue IL-18: Fold over background [5] was 13.6 fold. For the same substance, the HEK-Blue IL-18: Abs 405 at 100 nM [6] was 2.6 Abs and the HEK-Blue IL-18: Fold over background [6] was 14.4 fold.
